{"source": "patent US20250051407A1", "about": "“De novo designed sequence-specific DNA binding proteins” (University of Washington, priority 2023, published 2025)", "molecules": {"B1": {"name": "DBP35: designed DNA-binding protein, SEQ ID NO: 15, DNA target B (protein)", "chain": "GFGRAVKEKRKELGLTQKEFAEKAGLSRRTIIRIERGYIVPPKATKEKIAKALGTSVEELEQA"}, "B2": {"name": "DBP57: designed DNA-binding protein, SEQ ID NO: 31, DNA target E (protein)", "chain": "MVLTPMERIGEFIKRARREAGLTQRELAELAGVGQSTVSRIEKGEKCSPELVEKILEALRKV"}}, "key": {"[1]": {"test_system": "DBP57-TetR (synthetic construct)", "test": "cell_activity", "settings": "E. coli YFP NOT gate, 1 mM IPTG"}, "[2]": {"test_system": "DBP48-TetR (synthetic construct)", "test": "cell_activity", "settings": "E. coli YFP NOT gate, 1 mM IPTG"}, "[3]": {"test_system": "dsDNA target", "test": "Site saturation mutagenesis (SSM) library sorting, protein-side footprinting", "type": "binding", "experimental": "As disclosed in the examples that follow, the contributions of each amino acid to binding for additional designs, high-resolution footprints of the binding surface as generated was assessed by sorting site saturation mutagenesis libraries (SSMs) in which every residue was substituted with each of the 20 amino acids one at a time for DBPs 1, 6, and 35. Permissible substitutions for many of the polypeptides of the disclosure are provided in columns 2 and 3 Tables 4-19.\nThus, in some embodiments, substitutions relative to the reference sequence are selected from residues listed in columns 2 or 3 of one of Tables 4-19. In other embodiments, substitutions relative to the reference sequence are selected from residues listed in column 2 of one of Tables 4-19. Column 2 lists the “best” substitutions, which retain or improve DNA target binding activity relative to the reference sequence. Column 3 lists “permissible” substitutions, which retain binding to the DNA target sequence.\nTo assess the contributions of each amino acid to binding for additional designs, high-resolution footprints of the binding surface as generated by sorting site saturation mutagenesis libraries (SSMs) in which every residue was substituted with each of the 20 amino acids one at a time for DBPs 1, 6, and 35. […] In a small number of cases, substitutions led to notable improvements in binding affinity.\nCell sorting of labeled yeast pools was performed using a Sony SH800S cell sorter. Libraries of designs were sorted using the with-avidity method for the first few rounds of screening to exclude weak binder candidates, followed by several without-avidity sorts with different concentrations of targets. For SSM libraries, two rounds of with-avidity sorts were applied and in the third round of screening the libraries were titrated with a series of decreasing concentrations of targets to enrich mutants with beneficial mutations.\nThe Pear program was used to assemble the fastq files from the deep sequencing runs. Translated, assembled reads were matched against the ordered design to determine the number of counts for each design in each pool. In each sequenced pool, binder enrichment was calculated by determining the percent of reads for each binder design in the pool and dividing this number by the same value in the naive expression sort pool. […] For SSM libraries, apparent SC50 was estimated using the fitting procedure described in Longxing et al. (15)"}, "[4]": {"test_system": "synTF-specific cis-regulatory elements (CRE) in HEK293T cells", "test": "Transcriptional activation by synTFs in HEK293T cells (ENGRAM)", "type": "cell-based", "settings": "DBP fused to GCN4 dimerization domain and VP64; HEK293T cells expressing PEmax; dependent on spacing between motifs", "text": "Next, we investigated whether the DBPs can be used as activators in mammalian cells. A set of synthetic transcription factors (synTFs) were created by fusing the GCN4 dimerization domain and the VP64 activation domain to the C-termini of DBPs 9, 35opt, 48, 57, and 60 which recognize 3 unique motifs. The dimerization domain allows the DBPs to recognize a palindromic target sequence consisting of two binding motifs, improving the binding affinity to the DNA sequence (FIG. 2C). We created synTF specific cis-regulatory elements (CRE) with 4 repeats spaced by 6 bp to drive the expression of downstream genes, and used the ENGRAM (43) recording technology to measure the activity of the synTFs in HEK293 cells. In ENGRAM, each CRE drives the expression of a uniquely barcoded pegRNA, which upon expression is recorded into the DNA TAPE at the HEK3 locus by prime-editor (PEmax); the activity of individual synTFs can be measured as the abundance of the barcode on the DNA TAPE (FIG. 2C). We first tested 3 different spacings-1 bp, 3 bp, and 5 bp-between the palindromic binding motifs to maximize the recorder activity. 3 synTF specific recorders and 1 TCF-LEF-recorder (negative control) were mixed with ratio 2:2:2:1 and co-transfected with synTFs into the HEK293T cells expressing PEmax. Cells were harvested and analyzed 2 days post-transfection. After analyzing the barcode abundance on the DNA TAPE, we observed 3-5 fold activation for DBP9/DBP35 and DBP57/DBP60 (FIG. 2D).\nHEK293T cells expressing PEmax™ were cultured in DMEM High glucose (GIBCO), supplemented with 10% Fetal Bovine Serum (Rocky Mountain Biologicals) and 1% penicillin-streptomycin (GIBCO). Cells were grown with 5% CO2 at 37° C. 1×10^5 cells were seeded on a 48-well plate a day before transfection. Enhancer plasmid and binder plasmid were mixed with a ratio of 2:1. Enhancer variants and background control were mixed with a ratio of 2:2:2:1. A total of 300 ng of plasmid were transfected using Lipofectamine™ 3000 (ThermoFisher, L3000015), following the manufacturer's protocol. Cells were harvested 2 days post-transfection. Genomic DNA was extracted based on the protocol described earlier (43). Briefly, cells were lysed using freshly prepared lysis buffer (10 mM Tris-HCl, pH 7.5; 0.05% SDS; 25 µg/ml protease (ThermoFisher)) for each well. The genomic DNA mixture was incubated at 50° C. for 1 h, followed by an 80° C. enzyme inactivation step for 30 min. The DNA TAPE was amplified from the genomic DNA directly for next generation sequencing. Recorded information was extracted via custom analysis code. Each enhancer has a unique barcode representing its activity. Transcription activation was measured as the fold change in the barcode abundance relative to the negative control barcode. All measurements were performed in triplicates."}, "[5]": {"test_system": "biotinylated target dsDNA with non-biotinylated competitor dsDNA", "test": "Yeast display competition assay with base-substituted competitor dsDNA", "type": "binding", "text": "We used a yeast display competition assay to characterize the DNA binding site specificity of a subset of the designs (FIG. 1A-E, left; FIG. 5). Addition of non-biotinylated competitor dsDNA to biotinylated target sequence reduced binding signal by flow cytometry (FIG. 1A-E, middle). […] For example, in DBP6 (FIG. 1A) R31 and R36 in the design model form bidentate hydrogen bonds with the guanines of base pair positions G12 and C9, respectively, while T32 forms a hydrogen bond with C10.\n(§1) For yeast display characterization of individual designs, including competition assays, DNA sequences encoding the proteins of interest were purchased as Integrated DNA Technologies (IDT) E-Blocks™, transformed into yeast cells, and incubated in 96 well culture plates. Labeling with biotinylated dsDNA targets and SAPE/FITC was performed in a 96 well plate format. For yeast display competition assays, labeling was performed without avidity using 1 μM biotinylated dsDNA duplex oligos and an excess of 8 μM non-biotinylated competitor dsDNA duplex oligos. […] Flow cytometry analysis was performed with an Attune NxT™ flow cytometer with autosampler. Flow cytometry data analysis was performed using custom python code and the CytoFlow™ python package. For each individual sample, gating of the expression population was performed using the CytoFlow™ Gaussian Mixture Model and the ratio of SAPE channel intensity to FITC channel intensity (binding signal/expression signal) was calculated for all gated expression events of the sample."}, "[6]": {"test_system": "13 unique dsDNA targets", "test": "All-by-all yeast surface display screen of DBP design hits", "type": "binding", "settings": "for Number of the 13 tested DNA target sequences preferentially bound: including designed target sequence; for Binding specificity versus design models: all-by-all screen with Rosetta-predicted motifs", "experimental": "And an all-by-all screen of DBP design hits to 13 unique dsDNA targets was performed (FIG. 4, table 2). […] To try to understand these observed binding preferences, each tested DNA sequence was threaded onto each design complex model at all possible base pair alignments, the alternative complex models were relaxed with Rosetta™, and the model with the most favorable Rosetta™ ΔΔG was selected.\nSaccharomyces cerevisiae EBY100 strain cultures were grown in C-Trp-Ura medium supplemented with 2% (w/v) glucose. For induction of expression, yeast cells were centrifuged at 6,000 g for 1 min and resuspended in SGCAA medium supplemented with 0.2% (w/v) glucose at the cell density of 1×10^7 cells per ml and induced at 30° C. for 16-24 h. Cells were washed with PBSF (PBS with 1% (w/v) BSA) and labeled with biotinylated targets using two labeling methods: with-avidity and without-avidity labeling. For the with-avidity method, the cells were incubated with biotinylated target, together with anti-c-Myc fluorescein isothiocyanate (FITC, Miltenyi Biotech) and streptavidin-phycoerythrin (SAPE, ThermoFisher). The concentration of SAPE in the with-avidity method was used at one-quarter of the concentration of the biotinylated targets. For the without-avidity method, the cells were first incubated with biotinylated targets, washed and secondarily labeled with SAPE and FITC.\nas §1"}, "[7]": {"test_system": "synthetic promoter containing the designed DBP binding sites controlling YFP", "test": "Transcriptional repression assay (NOT gate, YFP) in E. coli", "type": "cell-based, Escherichia coli", "settings": "IPTG induction (1 mM), flow cytometry", "text": "We next tested the ability of the designed DBPs to function in cells to regulate transcription. We constructed candidate NOT gates (38) to assay transcriptional repression in Escherichia coli, where the input is a designed DBP under control of the IPTG-inducible PTac promoter and the output is yellow fluorescent protein (YFP) expression driven by a promoter incorporating each DBP's DNA binding site. […] To increase avidity and bulk, we fused the DBPs to the homodimerization domain of the TetR protein (39), using RFdiffusion (40) and ProteinMPNN sequence design to generate rigid linkers that orient the DBP domain of each dimer unit on a DNA target containing two palindromic binding sites. For DBPs 48, 69, and 57, we selected 96 TetR fusions for experimental characterization in the NOT gate circuit. Upon initial screening, we observed modest repression for several designs and selected two for further validation (one incorporating DBP48, the other DBP57) (FIG. 8). […]"}}}
{"molecule": "TCTGGATAGTGTATCCAGATTGACATCTGGAAGTATATCCAGATAATGAGCACTTCC (double strand) [PDBP57 synthetic promoter]", "values": [{"measurement": "activity (fold repression)", "setting": "[1]", "value": 8.1}]}
{"molecule": "GGCGTCAGGTGGACGCAGATTGACAGCGTCAGGTGGACGCTTATAATGAGCACTTCC (double strand) [PDBP48 synthetic promoter]", "values": [{"measurement": "activity (fold repression)", "setting": "[2]", "value": 3.4}]}
{"molecule": "B1", "values": [{"measurement": "Substitutions improving binding", "setting": "[3]; every residue substituted with each of the 20 amino acids", "value": "substitutions of R33 and K18 improved binding"}, {"measurement": "Tolerance of positions to substitution", "setting": "[3]; interface, core and surface positions", "value": "most positions at the interface and the core were largely conserved while positions at the surface were more tolerant of substitutions"}, {"measurement": "Fold activation of synTFs measured as normalized barcode abundance in the DNA TAPE", "setting": "[4]", "value": "3-5 fold"}, {"measurement": "Number of base positions of specificity", "setting": "[5]", "value": 3, "unit": "base positions"}, {"measurement": "DNA binding site specificity", "setting": "[5]; all possible base mutations at each position of the competitor oligo", "value": "specificities consistent with the designed sidechain-base interactions"}, {"measurement": "Number of the 13 tested DNA target sequences preferentially bound", "setting": "[6]; 1 μM dsDNA with avidity", "value": "less than 3"}, {"measurement": "Binding specificity versus design models", "setting": "[6]", "value": "bound with specificity closely consistent with the design models"}]}
{"molecule": "B2", "values": [{"measurement": "Fold repression of YFP by single DBP domains and tandem linked DBP domains", "setting": "[7]", "value": "not observed"}, {"measurement": "Fold activation of synTFs measured as normalized barcode abundance in the DNA TAPE", "setting": "[4]", "value": "3-5 fold"}, {"measurement": "Number of the 13 tested DNA target sequences preferentially bound", "setting": "[6]; 1 μM dsDNA with avidity", "value": "less than 3"}, {"measurement": "Binding specificity versus design models", "setting": "[6]", "value": "bound with specificity closely consistent with the design models"}, {"measurement": "Binding to initial design target", "setting": "[6]; yeast surface display, 1 μM dsDNA with avidity", "value": "bound strongly"}, {"measurement": "Binding to alternate target sequence", "setting": "[6]; yeast surface display, 1 μM dsDNA with avidity, alternate target H (DBP90), D (DBP48), C (DBP57)", "value": "bound strongly"}]}
